For 1 protein, Kd results are on record in PMC3399781 (Structure (London, England : 1993), 2010).

The data set concerns the molecule itself. The data set can be described thus: AUC.

B1: 2GS mGRFT (GRFT with GSGS inserted between Ser16 and Gly17) (natural protein)
chain: SLTHRKFGGSGGSPFSGSGSGLSSIAVRSGSYLDAIIIDGVHHGGSGGNLSPTFTFGSGEYISNMTIRSGDYIDNISFETNMGRRFGPYGGSGGSANTLSNVKVIQINGSAGDYLDSLDIYYEQY
The term Kd denotes the constant that tells how readily two partners part at equilibrium. The low end stands for a tighter complex, the high end for a looser complex. Turning to B1, the Kd was determined as 1170 µM.
